In patent US20200010519A1, “NUCLEASE FUSIONS FOR ENHANCING GENOME EDITING BY HOMOLOGY-DIRECTED TRANSGENE INTEGRATION” (INSTITUT NATIONAL DE LA SANTE ET DE LA RECHERCHE …, priority 2017, published 2020):

B1: HE2: Cas9 fused to HE2 (46-296 aa of CtIP; SEQ ID NO. 13), lacking the first 45 aa (protein, UniProt Q99708 46-296, looked up, fragment)
chain: KQERILDAQRLEEFFTKNQQLREQQKVLHETIKVLEDRLRAGLCDRCAVTEEHMRKKQQEFENIRQQNLKLITELMNERNTLQEENKKLSEQLQQKIENDQQHQAAELECEEDVIPDSPITAFSFSGVNRLRRKENPHVRYIEQTHTKLEHSVCANEMRKVSKSSTHPQHNPNENEILVADTYDQSQSPMAKAHGTSSYTPDKSSFNLATVVAETLGLGVQEESETQGPMSPLGDELYHCLEGNHKKQPFE
modifications: fused to Cas9
notes: Cas9 fused to HE2 (46-296 aa of CtIP; 13), lacking the first 45 aa
B2: HE3: Cas9 fused to HE3 (166-296 aa of CtIP; SEQ ID NO. 14) containing the 3 CDK phosphorylation sites (protein, UniProt Q99708 166-296, looked up, fragment)
chain: TAFSFSGVNRLRRKENPHVRYIEQTHTKLEHSVCANEMRKVSKSSTHPQHNPNENEILVADTYDQSQSPMAKAHGTSSYTPDKSSFNLATVVAETLGLGVQEESETQGPMSPLGDELYHCLEGNHKKQPFE
modifications: fused to Cas9
notes: Cas9 fused to HE3 (166-296 aa of CtIP; 14) containing the 3 CDK phosphorylation sites

Tested on: AAVS1 locus
Experiment: HDI of GFP cDNA at AAVS1 locus, FACS analysis, HEK293 cells
Format: cell-based, human

| Molecule | HDI of GFP cDNA (homology-directed insertion of the GFP donor) |
| --- | --- |
| B1 | HE1 was the only fragment shown to significantly stimulate |
| B2 | HE1 was the only fragment shown to significantly stimulate |
